Laboratory results published in patent publication US9315825B2, “Pharmacologically induced transgene ablation system” (The Trustees of the University of Pennsylvania, priority 2010, dated 2016).

Test system: pCMV.Luciferase reporter gene expression in HEK293 cells
Assay: Ablation of luciferase reporter by FokI ablators co-transfected into HEK293 cells (Dual Luciferase assay)
Assay type: cell-based, human
Conditions: for ablation of Luc reporter with increasing concentration of ablator expression plasmid: 6.25, 12.5, 25, 50 and 100 ng expression plasmid cotransfected with 50 ng pCMV.Luciferase; for expression of the luciferase reporter gene: FIG. 18A: 50 ng pCMV.Luciferase + 200 ng pCMV.FokI, or + transfected FokI protein
Experimental: Open reading frames encoding for various endonucleases were codon optimized and de novo synthesized by GeneArt. Ablator expression and target plasmids were produced using standard molecular biological cloning techniques. Transfections were performed in HEK293 cells using Lipofectamine™ 2000 transfection reagent (Life Technologies). All transfections were performed using optimal transfection conditions as defined in transfection reagent protocol. Briefly, 200-250 ng plasmid DNA (excluding transfection control plasmid) was complexed with Lipofectamine™ 2000 transfection reagent and added to cells in 96 well plates. DNA quantities were consistent across all conditions by supplementation with an unrelated plasmid containing the same promoter as test plasmids. Transfection complexes were incubated with cells for 4-6 hours as transfection reagent protocol before the addition of FBS supplemented media. Transfected cells were incubated at 37° C. for 24-72 hours. Following incubation, cells were assayed for reporter gene expression using Promega Dual Luciferase detection kit according to the manufacturer's instructions on a BioTek Clarity platereader and renilla luciferase was used to control for transfection efficiency. All samples were performed in quadruplicate and standard errors of the mean were calculated.
The amino acid sequence of the FokI enzyme is provided in SEQ ID NO: 12, wherein amino acids 1 to 387 are the DNA binding domain and amino acids 387 to 584 are the catalytic domain. The codon optimized FokI sequence is provided in SEQ ID NO:1.
In a dose-dependent experiment, the FokI expression vector contained the FokI catalytic domain fused to a zinc finger DNA binding domain (ZFHD). This construct, which is 963 bp, is provided in SEQ ID NO: 21 and is composed of base pairs 1 to 366 bp ZFHD, 367 to 372 bp linker, and 373 to 963 bp FokI catalytic domain. The resulting expression product comprises amino acids 1 to 122 (ZFHD), amino acids 123-124 are a linker and amino acids 125 to 321 are from the FokI catalytic domain. […] No ablation sites were required to be engineered into the transcription unit containing the transgene in this illustration, as luciferase contains multiple native FokI sites.
The plasmid contructs in this example contains either the FokI catalytic domain (198 amino acids (SEQ ID NO: 14), corresponding to amino acids 387 to 584 of the full-length protein) (untethered FokI) or a ZFHD-Fokl catalytic domain of 963 bp as described in Part A above (tethered FokI). Even at the highest concentration, the catalytic domain of FokI which is un-tethered to DNA does have no effect on expression of Luc reporter gene (FIG. 19A).
The HTH-FokI Catalytic domain (SEQ ID NO:5), is composed of 1-171 bp HTH from Gin (a serine recombinase), a linker (bp 172-177), and a FokI catalytic domain (178-768 bp) derived from codon-optimized FokI. The resulting chimeric enzyme (SEQ ID NO: 6) contains aa 1-57 of HTH from Gin, a linker (aa 58-59), and a FokI catalytic domain (amino acids 60-256).

Molecule | ablation of Luc reporter with increasing concentration of ablator expression plasmid | expression of the luciferase reporter gene | other results
ZFHD-FokI: FokI catalytic domain fused to a zinc finger homeodomain DNA binding domain (ZFHD), 963 bp, SEQ ID NO: 21 | dose dependent ablation | – | ablation of Luc reporter with increasing concentration of ablator expression plasmid (listed as ZF-HD-FokI): effectively ablated
untethered FokI: FokI catalytic domain alone, 198 amino acids (SEQ ID NO: 14), un-tethered to DNA (protein) MKQLVKSELEEKKSELRHKLKYVPHEYIELIEIARNPTQDRILEMKVMEFFMKVYGYRGEHLGGSRKPDGAIYTVGSPIDYGVIVDTKAYSGGYNLPIGQADEMQRYVEENQTRNKHINPNEWWKVYPSSVTEFKFLFVSGHFKGNYKAQLTRLNHITNCNGAVLSVEELLIGGEMIKAGTLTLEEVRRKFNNGEINF | no effect | – | –
FokI protein: FokI protein delivered (transfected) to the cells (protein, UniProt P14870 2-579, looked up) Type II restriction enzyme …: VSKIRTFGWVQNPGKFENLKRVVQVFDRNSKVHNEVKNIKIPTLVKESKIQKELVAIMNQHDLIYTYKELVGTGTSIRSEAPCDAIIQATIADQGNKKGYIDNWSSDGFLRWAHALGFIEYINKSDSFVITDVGLAYSKSADGSAIEKEILIEAISSYPPAIRILTLLEDGQHLTKFDLGKNLGFSGESGFTSLPEGILLDTLANAMPKDKGEIRNNWEGSSDKYARMIGGWLDKLGLVKQGKKEFIIPTLGKPDNKEFISHAFKITGEGLKVLRRAKGSTKFTRVPKRVYWEMLATNLTDKEYVRTRRALILEILIKAGSLKIEQIQDNLKKLGFDEVIETIENDIKGLINTGIFIEIKGRFYQLKDHILQFVIPNRGVTKQLVKSELEEKKSELRHKLKYVPHEYIELIEIARNSTQDRILEMKVMEFFMKVYGYRGKHLGGSRKPDGAIYTVGSPIDYGVIVDTKAYSGGYNLPIGQADEMQRYVEENQTRNKHINPNEWWKVYPSSVTEFKFLFVSGHFKGNYKAQLTRLNHITNCNGAVLSVEELLIGGEMIKAGTLTLEEVRRKFNNGEINF | – | partial ablation | –
NLS-HTH-FokI: HTH-FokI fusion which further has a heterologous NLS at its N-terminus (protein, modified enzyme from SV40, Gin and FokI, HTH-FokI fusion which further has a heterologous NLS at its N-terminus) MPKKKRKVGRPPRLTKAEWEQAGRLLAQGIPRKQVALIYDVALSTLYKKHPAKRAHIENDDRINGTKQLVKSELEEKKSELRHKLKYVPHEYIELIEIARNPTQDRILEMKVMEFFMKVYGYRGEHLGGSRKPDGAIYTVGSPIDYGVIVDTKAYSGGYNLPIGQADEMQRYVEENQTRNKHINPNEWWKVYPSSVTEFKFLFVSGHFKGNYKAQLTRLNHITNCNGAVLSVEELLIGGEMIKAGTLTLEEVRRKFNNGEINF | – | – | activity of HTH-FokI after adding heterologous NLS at the N-terminus (6.25-100 ng expression plasmid with 50 ng pCMV.Luciferase, separate experiment): further improved
HTH-FokI: HTH from Gin (a serine recombinase), a linker and FokI catalytic domain, SEQ ID NO: 6 (protein) MGRPPRLTKAEWEQAGRLLAQGIPRKQVALIYDVALSTLYKKHPAKRAHIENDDRINGTKQLVKSELEEKKSELRHKLKYVPHEYIELIEIARNPTQDRILEMKVMEFFMKVYGYRGEHLGGSRKPDGAIYTVGSPIDYGVIVDTKAYSGGYNLPIGQADEMQRYVEENQTRNKHINPNEWWKVYPSSVTEFKFLFVSGHFKGNYKAQLTRLNHITNCNGAVLSVEELLIGGEMIKAGTLTLEEVRRKFNNGEINF | effectively ablated | – | –
wild-type FokI: full-length FokI enzyme (SEQ ID NO: 12) expressed from a cotransfected codon optimized plasmid (protein) MFLSMVSKIRTFGWVQNPGKFENLKRVVQVFDRNSKVHNEVKNIKIPTLVKESKIQKELVAIMNQHDLIYTYKELVGTGTSIRSEAPCDAIIQATIADQGNKKGYIDNWSSDGFLRWAHALGFIEYINKSDSFVITDVGLAYSKSADGSAIEKEILIEAISSYPPAIRILTLLEDGQHLTKFDLGKNLGFSGESGFTSLPEGILLDTLANAMPKDKGEIRNNWEGSSDKYARMIGGWLDKLGLVKQGKKEFIIPTLGKPDNKEFISHAFKITGEGLKVLRRAKGSTKFTRVPKRVYWEMLATNLTDKEYVRTRRALILEILIKAGSLKIEQIQDNLKKLGFDEVIETIENDIKGLINTGIFIEIKGRFYQLKDHILQFVIPNRGVGTKQLVKSELEEKKSELRHKLKYVPHEYIELIEIARNPTQDRILEMKVMEFFMKVYGYRGEHLGGSRKPDGAIYTVGSPIDYGVIVDTKAYSGGYNLPIGQADEMQRYVEENQTRNKHINPNEWWKVYPSSVTEFKFLFVSGHFKGNYKAQLTRLNHITNCNGAVLSVEELLIGGEMIKAGTLTLEEVRRKFNNGEINF | – | effective ablated | –
